Assay results: publication doi:10.1101/2023.09.18.558202 (bioRxiv, 2023)

Biological target: the molecule itself
Assay: SEC

B1: F420-dependent methylene-tetrahydromethanopterin reductase (Mer) from Methanocaldococcus jannaschii (enzyme, UniProt Q58929 1-331, looked up)
chain: MKFGIEFVPNEPIQKLCYYVKLAEDNGFEYCWITDHYNNRNVYMALTAIAMNTNKIKLGPGVTNPYVRSPAITASAIATLDELSGGRAVLGIGPGDKATFDALGIEWVKPVTTLKESIEVIRKLLAGERVSYEGKVVKIAGAALAVKPIQKAVPVYMGAQGPKMLETAGMIADGVLINASNPKDFEAAIPLIKKGAEAAGRSMDEIDVAAYACMSVDKNADKAKQAAVPVVAFIAAGSPPVVLERHGIDMEKVEAIRNALKSGNFPEAFKNVDDTMLEAFSIYGTPEDVVEKCKKLAEMGVTQIVAGSPIGPNKETAIKLIGKKVIPALKE
  stoichiometry N: 2
